Measurements as given in patent publication US20250236653A1 (ONKO INNATE, published 2025).

T1: human OX40 (human, UniProt P43489 29-277)
T1 construct: whole, on cells; also called hOX40
T1 sequence (looked up): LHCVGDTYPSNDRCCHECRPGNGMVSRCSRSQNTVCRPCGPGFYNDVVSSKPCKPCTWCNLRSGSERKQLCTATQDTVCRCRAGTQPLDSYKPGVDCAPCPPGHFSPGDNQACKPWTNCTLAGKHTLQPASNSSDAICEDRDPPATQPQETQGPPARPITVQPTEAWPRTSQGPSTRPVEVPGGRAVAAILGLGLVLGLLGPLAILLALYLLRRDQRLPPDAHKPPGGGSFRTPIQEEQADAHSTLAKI


Key:
cynomolgus monkey OX40 [1] = target: T2, cynomolgus monkey OX40 (cynomolgus monkey); assay: flow cytometry on cOX40-Jurkat-NF-κB cells
T2 construct: whole, on cells; also called cOX40; cynomolgus OX40

human OX40 [2] = target: T1, human OX40; assay: flow cytometry, monovalent fusion protein on hOX40-Jurkat-NF-κB cells
human OX40 [3] = target: T1, human OX40; assay: flow cytometry on hOX40-Jurkat-NF-κB cells
Method: (§1) Stained hOX40-Jurkat-NF-κB and cOX40-Jurkat-NF-κB cells were analyzed by flow cytometry using a CytoFLEX (Beckman Coulter), the results of which are depicted in FIGS. 78 and 79, respectively, and summarized in FIG. 80.
Binding of each of the sequence optimized IL-12 ABD fusion proteins to hOX40-Jurkat-NF-κB cells was performed as described in Example 16, the results of which are depicted in FIG. 87 and summarized in FIG. 88.

human OX40 [4] = target: T1, human OX40; assay: competition, flow cytometry: inhibition of 2.5 nM A647-labelled OX40L-Fc binding to hOX40-Jurkat-NF-κB cells
Method: To investigate whether any of BGB-A445, 20E5, or 12H3 competed with OX40L for the OX40 binding site, we assessed the capacity of these clones, either in traditional IgG1 monospecific, bivalent mAb format or as bispecific, monovalent IL-12 ABD fusion proteins, to block binding of OX40L to hOX40-Jurkat-NF-κB cells. For the experiment, 30,000 hOX40-Jurkat-NF-κB cells were pre-incubated with 0-450 nM mAb or IL-12 ABD fusion protein for 10 minutes on ice prior to being stained for an additional 10 minutes on ice with 2.5 nM OX40L-Fc (Sino Biological, catalogue number 13127-H01H) that had been coupled to an A647 fluorophore using a Zenon Human IgG labelling kit (Invitrogen, catalogue number Z25408). Stained hOX40-Jurkat-NF-κB cells were analyzed by flow cytometry, and are depicted as percentage of OX40L-Fc positive cells within the OX40 positive gate (defined using a non-competing anti-OX40 mAb (clone Ber-ACT35, BioLegend catalogue number 350012) in FIG. 89.

cynomolgus monkey OX40 [5] = target: T2, cynomolgus monkey OX40; assay: flow cytometry on cOX40-Jurkat-NF-κB cells, as in Example 16
Method: as §1
(§2) Sequences for the VH and VL domains of an additional anti-human OX40 antibody (clone 41) are provided in FIG. 112 (SEQ ID NOs: 170 and 171, respectively). To investigate whether clone 41 would be suitable for use within IL-12 ABD fusion proteins, this antibody was recombinantly expressed in bivalent human IgG1 format (termed ‘hG1-clone 41’) and subjected to protein A purification. […] Next, hG1-clone 41 was assessed for its capacity to block the binding of OX40L to hOX40-Jurkat-NF-κB cells, as described in Example 19. […] The capacity of hG1-clone 41 to block OX40L-induced signaling in hOX40-Jurkat-NF-κB cells was also assessed using a similar experimental setup as described in Example 20, the results of which are depicted in FIG. 117. […] Finally, the capacity of hG1-clone 41 to trigger OX40 signaling was assessed in hOX40-Jurkat-NF-κB cells, as described in Example 25.

human OX40 [6] = target: T1, human OX40; assay: flow cytometry on hOX40-Jurkat-NF-κB cells, as in Example 16
Method: as §1, §2

| Binder | fold difference of EC50 against hOX40-Jurkat-NF-κB cells (cynomolgus monkey OX40 [1]) | binding result (human OX40 [2]) | EC50 (human OX40 [3]) | IC50 (human OX40 [4]) | EC50 (cynomolgus monkey OX40 [5]) | EC50 (human OX40 [6]) |
| --- | --- | --- | --- | --- | --- | --- |
| mono-mut23-20E5 (Fc fusion, Monovalent for OX40) IWELKKDVYVVELDWYPDAPGEMVVLTCDTPEEDGITWTLDQSSEVLGSGKTLTIQVKEFGDAGQYTCHKGGEVLSHSLLLLHKKEDGIWSTDILKDQKEPKNKTFLRCEAKNYSGRFTCWWLTTISTDLTFSVKSSRGSSDPQGVTCGAATLSAERVRGDNKEYEYSVECQEDSACPAAEESLPIEVMVDAVHKLKYENYTSSFFIRDIIKPDPPKNLQLKPLKNSRQVEVSWEYPDTWSTPHSYFSLTFSVQVQGKSKREKKDRVFTDKTSATVICRKNASISVRAQDRYYSSSWSEWASVPCSGGGGSGGGGSGGGGSGGGGSGGGGSRNLPVATPDPGMFPCLHHSQNLLRAVSNMLQKARQTLEFSPCTSEEIDHEDITKDKTSTVEACLPLELTKNESCLNSRETSFITNGSCLASRKTSFMMALCLSSIYEDLKMYQVEFKTMNAKLLMDPKRQIFLDQNMLAVIDELMQALNFNSETVPQKSSLEEPDFYKTAIKLCILLHAFRIRAVTIDRVMSYLNASGGGGSGGGGSEPKSSDKTHTCPPCPAPEFEGGPSVFLFPPKPKDTLMISRTPEVTCVVVDVSHEDPEVKFNWYVDGVEVHNAKTKPREEQYNSTYRVVSVLTVLHQDWLNGKEYKCKVSNKALPASIEKTISKAKGQPREPQVCTLPPSRDELTKNQVSLSCAVKGFYPSDIAVEWESNGQPENNYKTTPPVLDSDGSFFLVSKLTVDKSRWQQGNVFSCSVMHEALHNHYTQKSLSLSPG heavy: QVQLVQSGAEVKKPGASVKVSCKASGYTFTSYVMHWVRQAPGQRLEWIGYINPYNDGTKYNEKFKGRATLTSDKSASTAYMELSSLRSEDTAVYYCANYYGSSLSMDYWGQGTLVTVSSASTKGPSVFPLAPSSKSTSGGTAALGCLVKDYFPEPVTVSWNSGALTSGVHTFPAVLQSSGLYSLSSVVTVPSSSLGTQTYICNVNHKPSNTKVDKKVEPKSCDKTHTCPPCPAPEFEGGPSVFLFPPKPKDTLMISRTPEVTCVVVDVSHEDPEVKFNWYVDGVEVHNAKTKPREEQYNSTYRVVSVLTVLHQDWLNGKEYKCKVSNKALPASIEKTISKAKGQPREPQVYTLPPCRDELTKNQVSLWCLVKGFYPSDIAVEWESNGQPENNYKTTPPVLDSDGSFFLYSKLTVDKSRWQQGNVFSCSVMHEALHNHYTQKSLSLSPG light: not shown | ≤ 2 fold | binds | – | – | – | – |
| mono-mut23-12H3 (Fc fusion, Monovalent for OX40) IWELKKDVYVVELDWYPDAPGEMVVLTCDTPEEDGITWTLDQSSEVLGSGKTLTIQVKEFGDAGQYTCHKGGEVLSHSLLLLHKKEDGIWSTDILKDQKEPKNKTFLRCEAKNYSGRFTCWWLTTISTDLTFSVKSSRGSSDPQGVTCGAATLSAERVRGDNKEYEYSVECQEDSACPAAEESLPIEVMVDAVHKLKYENYTSSFFIRDIIKPDPPKNLQLKPLKNSRQVEVSWEYPDTWSTPHSYFSLTFSVQVQGKSKREKKDRVFTDKTSATVICRKNASISVRAQDRYYSSSWSEWASVPCSGGGGSGGGGSGGGGSGGGGSGGGGSRNLPVATPDPGMFPCLHHSQNLLRAVSNMLQKARQTLEFSPCTSEEIDHEDITKDKTSTVEACLPLELTKNESCLNSRETSFITNGSCLASRKTSFMMALCLSSIYEDLKMYQVEFKTMNAKLLMDPKRQIFLDQNMLAVIDELMQALNFNSETVPQKSSLEEPDFYKTAIKLCILLHAFRIRAVTIDRVMSYLNASGGGGSGGGGSEPKSSDKTHTCPPCPAPEFEGGPSVFLFPPKPKDTLMISRTPEVTCVVVDVSHEDPEVKFNWYVDGVEVHNAKTKPREEQYNSTYRVVSVLTVLHQDWLNGKEYKCKVSNKALPASIEKTISKAKGQPREPQVCTLPPSRDELTKNQVSLSCAVKGFYPSDIAVEWESNGQPENNYKTTPPVLDSDGSFFLVSKLTVDKSRWQQGNVFSCSVMHEALHNHYTQKSLSLSPG heavy: QVQLVQSGAEVKKPGSSVKVSCKASGYTFKDYTMHWVRQAPGQGLEWIGGIYPNNGGSTYNQNFKDRVTLTADKSTSTAYMELSSLRSEDTAVYYCARMGYHGPHLDFDVWGQGTTVTVSSASTKGPSVFPLAPSSKSTSGGTAALGCLVKDYFPEPVTVSWNSGALTSGVHTFPAVLQSSGLYSLSSVVTVPSSSLGTQTYICNVNHKPSNTKVDKKVEPKSCDKTHTCPPCPAPEFEGGPSVFLFPPKPKDTLMISRTPEVTCVVVDVSHEDPEVKFNWYVDGVEVHNAKTKPREEQYNSTYRVVSVLTVLHQDWLNGKEYKCKVSNKALPASIEKTISKAKGQPREPQVYTLPPCRDELTKNQVSLWCLVKGFYPSDIAVEWESNGQPENNYKTTPPVLDSDGSFFLYSKLTVDKSRWQQGNVFSCSVMHEALHNHYTQKSLSLSPG light: DIQMTQSPSSLSASVGDRVTITCKASQDVGAAVAWYQQKPGKAPKLLIYWASTRHTGVPSRFSGSGSGTDFTLTISSLQPEDFATYYCQQYINYPLTFGGGTKVEIKRTVAAPSVFIFPPSDEQLKSGTASVVCLLNNFYPREAKVQWKVDNALQSGNSQESVTEQDSKDSTYSLSSTLTLSKADYEKHKVYACEVTHQGLSSPVTKSFNRGEC | ≤ 2 fold | – | 13.6 nM | 227 nM | – | – |
| hG1-clone 41 (antibody, V domains shown, Recombinantly expressed in bivalent human IgG1 format) VH: QVQLVESGGGVVQPGRSLRLSCAASGFTFSSYGMHWVRQAPGKGLEWVALISYDGSNKIYTDSVKGRFTISRDNSKNTLYLQMNSLRPEDTAVYYCAKGREIVATYFDYWGQGTLVTVSS VL: not shown | – | – | – | – | 1 nM | 1.1 nM |
